The results in this text go back to paper PMC11621151.

Test in all cases: SPR
The target of assay [1] is human neonatal Fc receptor (FcRn) (human) (UniProt P55899).
In assay [2] the target is monkey neonatal Fc receptor (FcRn) (monkey) (UniProt Q8SPV9).
Assay [3] has as its target mouse neonatal Fc receptor (FcRn) (mouse) (UniProt Q61559).
Assay [4] addresses rabbit neonatal Fc receptor (FcRn) (rabbit).
In assay [5] the target is rat neonatal Fc receptor (FcRn) (rat) (UniProt P13599).

In the case of Efgartigimod (domain or fragment), the Kd is 8.56 nM in assay [1]; 14.5 nM in assay [2]; 0.63 nM in assay [3]; 310 nM in assay [4]; 1.89 nM in assay [5].
